How the values were obtained:
[1] = target: hemolysin B (HlyB), ABC transporter of the HlyA type I secretion system (E. coli) (UniProt P08716)
[2] = target: hemolysin B (HlyB), ABC transporter of the HlyA type I secretion system (E. coli) (UniProt P08716); remark: listed apart in the source
[3] = target: HlyB∆CLD, truncated HlyB lacking the N-terminal C39 peptidase-like domain (E. coli)

Chain of UniProt P08716 (P08716 whole entry, the tested form may be a part): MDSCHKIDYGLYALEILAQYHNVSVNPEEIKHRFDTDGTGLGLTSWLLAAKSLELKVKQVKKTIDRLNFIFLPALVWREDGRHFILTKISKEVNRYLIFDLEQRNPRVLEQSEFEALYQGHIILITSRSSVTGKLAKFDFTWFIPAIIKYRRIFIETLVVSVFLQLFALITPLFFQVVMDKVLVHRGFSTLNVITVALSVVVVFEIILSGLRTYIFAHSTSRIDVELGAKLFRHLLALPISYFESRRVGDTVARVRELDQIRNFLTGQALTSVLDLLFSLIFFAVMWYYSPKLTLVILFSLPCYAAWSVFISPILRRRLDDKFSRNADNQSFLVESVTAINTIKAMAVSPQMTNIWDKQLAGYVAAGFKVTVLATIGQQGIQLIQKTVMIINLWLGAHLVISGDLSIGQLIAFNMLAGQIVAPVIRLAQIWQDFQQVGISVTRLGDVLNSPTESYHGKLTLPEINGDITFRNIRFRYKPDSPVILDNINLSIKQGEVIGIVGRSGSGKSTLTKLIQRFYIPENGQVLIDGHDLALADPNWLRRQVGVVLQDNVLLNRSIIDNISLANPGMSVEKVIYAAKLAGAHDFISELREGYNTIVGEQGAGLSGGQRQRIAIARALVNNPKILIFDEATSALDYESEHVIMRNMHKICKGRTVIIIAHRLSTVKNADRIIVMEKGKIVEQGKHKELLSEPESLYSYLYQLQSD

proHlyA, full-length hemolytically inactive (non-acylated) precursor form of hemolysin A (from UniProt P08715 1-1024) (natural protein)
inhibition of the basal ATPase activity of HlyB reconstituted with LPC/DOPC mixtures or LPC alone in saposin-A nanoparticles, with 10 µM unfolded proHlyA [1]: 40%
inhibition of the basal ATPase activity of HlyB in LPC-saposin-A nanoparticles by unfolded proHlyA, 0-10 µM, 4 mM ATP, 25 °C [2]: 30%
stimulation of ATP hydrolysis of HlyB in LPC-saposin-A nanoparticles by folded proHlyA (Ca2+), 0-10 µM, 4 mM ATP, 25 °C [2]: 60%
stimulation of the basal ATPase activity of HlyB∆CLD in LPC-saposin-A nanoparticles by folded proHlyA, 0-10 µM (Michaelis-Menten fit with substrate inhibition) [3]: 2 fold
stimulation of the basal ATPase activity of HlyB∆CLD in LPC-saposin-A nanoparticles by unfolded proHlyA, 0-10 µM, with strong substrate inhibition at higher concentrations [3]: 4 fold

From publication PMC6558041
